Source: patent US20230034906A1 (TRINOMAB BIOTECH, published 2023)
Changes are numbered by the printed parent chain.

Assays:
[1] = molecular target: T1, N208Q mutant of gB glycoprotein (gB_Towne protein) (human cytomegalovirus, strain Towne, UniProt F5HB53 25-700); assay: indirect ELISA, antibody titrated on gB glycoprotein mutant
T1 construct: also called gB glycoprotein N208Q mutant
T1 chain: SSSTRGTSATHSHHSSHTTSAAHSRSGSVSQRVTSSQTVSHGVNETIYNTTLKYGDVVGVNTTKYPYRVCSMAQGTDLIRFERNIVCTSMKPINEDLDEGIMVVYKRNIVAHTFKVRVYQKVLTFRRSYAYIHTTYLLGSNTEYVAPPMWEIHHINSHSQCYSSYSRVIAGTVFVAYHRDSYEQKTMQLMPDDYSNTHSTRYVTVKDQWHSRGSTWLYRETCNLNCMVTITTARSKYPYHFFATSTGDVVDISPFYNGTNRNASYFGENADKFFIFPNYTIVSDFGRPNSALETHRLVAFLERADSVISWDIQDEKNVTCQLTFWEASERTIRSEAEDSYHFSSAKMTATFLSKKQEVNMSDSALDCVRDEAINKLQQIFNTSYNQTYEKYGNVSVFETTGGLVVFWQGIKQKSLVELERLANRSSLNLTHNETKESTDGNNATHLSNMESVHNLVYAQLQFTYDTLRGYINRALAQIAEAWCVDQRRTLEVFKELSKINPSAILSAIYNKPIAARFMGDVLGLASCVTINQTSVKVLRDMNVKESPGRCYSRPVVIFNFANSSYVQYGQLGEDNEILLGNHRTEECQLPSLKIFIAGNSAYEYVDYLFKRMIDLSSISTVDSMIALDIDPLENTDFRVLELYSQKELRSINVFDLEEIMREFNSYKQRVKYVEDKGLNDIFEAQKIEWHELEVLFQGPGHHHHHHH

[2] = molecular target: T2, gB_Towne protein with N447 mutated into glutamine (human cytomegalovirus, strain Towne, UniProt F5HB53 25-700); assay: as above
T2 chain: T1 chain with Q184N, N423Q

[3] = molecular target: T3, gB_Towne protein with N452 mutated into glutamine (human cytomegalovirus, strain Towne, UniProt F5HB53 25-700); assay: as above
T3 chain: T1 chain with Q184N, N428Q

[4] = molecular target: T4, homologous sequence of gB glycoprotein of 56 virus strains (gB_Con. Strain) (human cytomegalovirus (homologous …, UniProt P06473 25-699)); assay: ELISA, HEK293 culture supernatant on gB
T4 construct: C-terminal tags are part of the entry
T4 chain: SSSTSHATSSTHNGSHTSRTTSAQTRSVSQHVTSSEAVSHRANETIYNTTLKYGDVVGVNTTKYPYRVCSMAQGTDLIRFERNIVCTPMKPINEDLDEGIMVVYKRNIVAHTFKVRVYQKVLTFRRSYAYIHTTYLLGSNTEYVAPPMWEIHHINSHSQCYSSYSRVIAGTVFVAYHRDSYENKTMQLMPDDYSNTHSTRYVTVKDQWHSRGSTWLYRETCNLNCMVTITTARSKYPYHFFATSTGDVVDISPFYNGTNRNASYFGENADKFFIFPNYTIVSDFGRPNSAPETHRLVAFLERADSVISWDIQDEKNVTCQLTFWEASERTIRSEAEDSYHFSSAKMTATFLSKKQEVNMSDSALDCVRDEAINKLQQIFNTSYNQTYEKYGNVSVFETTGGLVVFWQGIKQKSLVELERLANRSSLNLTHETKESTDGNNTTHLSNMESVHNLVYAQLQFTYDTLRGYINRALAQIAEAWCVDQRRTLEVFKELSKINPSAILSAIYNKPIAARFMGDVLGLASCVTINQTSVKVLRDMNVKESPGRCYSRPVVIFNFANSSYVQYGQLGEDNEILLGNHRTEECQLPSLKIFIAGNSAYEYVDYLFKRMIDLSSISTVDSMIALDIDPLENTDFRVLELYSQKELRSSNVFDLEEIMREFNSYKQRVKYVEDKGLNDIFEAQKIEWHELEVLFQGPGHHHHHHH

Measured: binding result

B1: TRN1019 (antibody, V domains shown)
VH: QVQLVQSGAEVKKPGESLKISCKGSGYTFTNYWIGWVRQMPGAGLEWMAIIFPRDSYSAYSPSFQGRVTISVDKSISTAYLHWSSLEASDTAVYYCAIYNDLRSGNSWGQGTPLIVSS
VL: DIQMTQSPSSLSASVGDRVTITCRASQSITKYLNWYQQKPGRAPKLLIHTTSTLQSGVPSRFSGSGSGTDFTLTISSLQLEDFGTYYCQQSFSTLWTFGQGTKLDIKR
notes: Fully human antibody; kappa light chain
binds: [1] | [2] | [3] | [4]
